Test results taken from PMC314469, “Protein Interaction Networks by Proteome Peptide Scanning” (PLoS Biology, 2004).

Target: T1, Boi1 SH3 (BOI1_YEAST), P38041
T1 chain: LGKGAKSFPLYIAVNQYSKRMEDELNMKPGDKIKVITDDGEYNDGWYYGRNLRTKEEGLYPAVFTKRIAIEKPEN
Assay: SPOT array

| normalised SPOT signal, Boehringer light units (BLU); mean over the file's lines of this peptide | Binder |
| --- | --- |
| 103 | LNLSKDAPVPPAPE [YOL006C 316-329] |
| 93.4 | LNKTKLLPQSPILN [YJR005W 603-616] |
| 711 | LKKQKAIPSSPSGM [YMR179W 684-697] |
| -0 | LLPTKLIPSIPGGK [YER105C 312-325] |
| 4910 | LNPNRRAPRRPLST [YJL128C 180-193] |
| 63.9 | LNGLKSSPADPHLS [YLR072W 61-74] |
| 796 | LMSLKRFPQLPSNT [YOL125W 162-175] |
| 126 | LLVTKERPRFPEDD [YIL129C 688-701] |

The remaining lines, values behind:

| Binder | normalised SPOT signal, Boehringer light units (BLU); mean over the file's lines of this peptide |
| --- | --- |
| LNATKISPSAPSKD [YAR002W 346-359] | 51.9 |
| LNFKRLLPRDPSEK [YBR239C 260-273] | 1070 |
| LLEERNNPDIPVDK [YBR055C 407-420] | 85.4 |
| LNFPKNIPTIPFYV [YDR402C 27-40] | 92.6 |
| LNQSKGQPFQPSPT [YBL101C 22-35] | 139 |

Target: T2, Boi2 SH3 (BOI2_YEAST), P39969
T2 chain: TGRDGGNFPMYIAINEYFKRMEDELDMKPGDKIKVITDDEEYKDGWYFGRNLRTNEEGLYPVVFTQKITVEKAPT
Assay: SPOT array

| normalised SPOT signal, Boehringer light units (BLU); mean over the file's lines of this peptide | Binder |
| --- | --- |
| 19.2 | LNLSKDAPVPPAPE [YOL006C 316-329] |
| 8.8 | LNKTKLLPQSPILN [YJR005W 603-616] |
| 16.1 | LKKQKAIPSSPSGM [YMR179W 684-697] |
| 3.5 | LLPTKLIPSIPGGK [YER105C 312-325] |
| 506 | LNPNRRAPRRPLST [YJL128C 180-193] |
| 39.1 | LNGLKSSPADPHLS [YLR072W 61-74] |
| 294 | LMSLKRFPQLPSNT [YOL125W 162-175] |
| 7.5 | LLVTKERPRFPEDD [YIL129C 688-701] |

The remaining lines, values behind:

| Binder | normalised SPOT signal, Boehringer light units (BLU); mean over the file's lines of this peptide |
| --- | --- |
| LNATKISPSAPSKD [YAR002W 346-359] | 0 |
| LNFKRLLPRDPSEK [YBR239C 260-273] | 57.4 |
| LLEERNNPDIPVDK [YBR055C 407-420] | 19.6 |
| LNFPKNIPTIPFYV [YDR402C 27-40] | -0 |
| LNQSKGQPFQPSPT [YBL101C 22-35] | 0 |

Target: T3, Myo5 SH3 (MYO5_YEAST), Q04439
T3 chain: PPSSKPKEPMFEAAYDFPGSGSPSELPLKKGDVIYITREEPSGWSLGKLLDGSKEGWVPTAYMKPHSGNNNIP
Assay: SPOT array

| normalised SPOT signal, Boehringer light units (BLU); mean over the file's lines of this peptide | Binder |
| --- | --- |
| 161 | LNLSKDAPVPPAPE [YOL006C 316-329] |
| 118 | LNKTKLLPQSPILN [YJR005W 603-616] |
| 307 | LKKQKAIPSSPSGM [YMR179W 684-697] |
| 172 | LLPTKLIPSIPGGK [YER105C 312-325] |
| 8000 | LNPNRRAPRRPLST [YJL128C 180-193] |
| 153 | LNGLKSSPADPHLS [YLR072W 61-74] |
| 348 | LMSLKRFPQLPSNT [YOL125W 162-175] |
| 33.7 | LLVTKERPRFPEDD [YIL129C 688-701] |

The remaining lines, values behind:

| Binder | normalised SPOT signal, Boehringer light units (BLU); mean over the file's lines of this peptide |
| --- | --- |
| LNATKISPSAPSKD [YAR002W 346-359] | 114 |
| LNFKRLLPRDPSEK [YBR239C 260-273] | 554 |
| LLEERNNPDIPVDK [YBR055C 407-420] | 312 |
| LNFPKNIPTIPFYV [YDR402C 27-40] | 256 |
| LNQSKGQPFQPSPT [YBL101C 22-35] | 255 |

Target: T4, Rvs167 SH3 (RV167_YEAST), P39743
T4 chain: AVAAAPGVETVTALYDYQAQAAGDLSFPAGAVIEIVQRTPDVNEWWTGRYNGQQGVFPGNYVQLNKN
Assay: SPOT array

| normalised SPOT signal, Boehringer light units (BLU); mean over the file's lines of this peptide | Binder |
| --- | --- |
| 128 | LNLSKDAPVPPAPE [YOL006C 316-329] |
| 35.5 | LNKTKLLPQSPILN [YJR005W 603-616] |
| 35.2 | LKKQKAIPSSPSGM [YMR179W 684-697] |
| 17.2 | LLPTKLIPSIPGGK [YER105C 312-325] |
| 1240 | LNPNRRAPRRPLST [YJL128C 180-193] |
| 60.3 | LNGLKSSPADPHLS [YLR072W 61-74] |
| 1340 | LMSLKRFPQLPSNT [YOL125W 162-175] |
| 16.4 | LLVTKERPRFPEDD [YIL129C 688-701] |

The next lines start with the binder.

| Binder | normalised SPOT signal, Boehringer light units (BLU); mean over the file's lines of this peptide |
| --- | --- |
| LNATKISPSAPSKD [YAR002W 346-359] | 29.4 |
| LNFKRLLPRDPSEK [YBR239C 260-273] | 1630 |
| LLEERNNPDIPVDK [YBR055C 407-420] | 38.3 |
| LNFPKNIPTIPFYV [YDR402C 27-40] | 53 |
| LNQSKGQPFQPSPT [YBL101C 22-35] | 111 |

These binders were tested against Sho1 SH3 (SHO1_YEAST), P40073 (assay: SPOT array).
Sho1 SH3 (SHO1_YEAST), P40073, sequence (P40073 295-366): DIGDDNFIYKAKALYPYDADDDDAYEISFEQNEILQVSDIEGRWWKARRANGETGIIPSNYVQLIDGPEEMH

| normalised SPOT signal, Boehringer light units (BLU); mean over the file's lines of this peptide | Binder |
| --- | --- |
| 54.1 | LNLSKDAPVPPAPE [YOL006C 316-329] |
| 1920 | LNKTKLLPQSPILN [YJR005W 603-616] |
| 204 | LKKQKAIPSSPSGM [YMR179W 684-697] |
| 17.1 | LLPTKLIPSIPGGK [YER105C 312-325] |
| 585 | LNPNRRAPRRPLST [YJL128C 180-193] |
| 20.5 | LNGLKSSPADPHLS [YLR072W 61-74] |
| 661 | LMSLKRFPQLPSNT [YOL125W 162-175] |
| 47.5 | LLVTKERPRFPEDD [YIL129C 688-701] |

Continued, binder first:

| Binder | normalised SPOT signal, Boehringer light units (BLU); mean over the file's lines of this peptide |
| --- | --- |
| LNATKISPSAPSKD [YAR002W 346-359] | 31.8 |
| LNFKRLLPRDPSEK [YBR239C 260-273] | 1360 |
| LLEERNNPDIPVDK [YBR055C 407-420] | 26.1 |
| LNFPKNIPTIPFYV [YDR402C 27-40] | 131 |
| LNQSKGQPFQPSPT [YBL101C 22-35] | 24.8 |

Target: T5, Yfr024 SH3 (LSB3_YEAST), P43603
T5 chain: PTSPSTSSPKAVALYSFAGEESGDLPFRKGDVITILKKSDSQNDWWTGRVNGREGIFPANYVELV
Assay: SPOT array

| normalised SPOT signal, Boehringer light units (BLU); mean over the file's lines of this peptide | Binder |
| --- | --- |
| 0 | LNLSKDAPVPPAPE [YOL006C 316-329] |
| 71.9 | LNKTKLLPQSPILN [YJR005W 603-616] |
| 255 | LKKQKAIPSSPSGM [YMR179W 684-697] |
| 154 | LLPTKLIPSIPGGK [YER105C 312-325] |
| 3720 | LNPNRRAPRRPLST [YJL128C 180-193] |
| 2.4 | LNGLKSSPADPHLS [YLR072W 61-74] |
| 2420 | LMSLKRFPQLPSNT [YOL125W 162-175] |
| 168 | LLVTKERPRFPEDD [YIL129C 688-701] |

More lines, now with the values behind:

| Binder | normalised SPOT signal, Boehringer light units (BLU); mean over the file's lines of this peptide |
| --- | --- |
| LNATKISPSAPSKD [YAR002W 346-359] | 38.8 |
| LNFKRLLPRDPSEK [YBR239C 260-273] | 1290 |
| LLEERNNPDIPVDK [YBR055C 407-420] | 38.8 |
| LNFPKNIPTIPFYV [YDR402C 27-40] | 26.9 |
| LNQSKGQPFQPSPT [YBL101C 22-35] | 16 |

Target: T6, Yhr016c SH3 (YSC84_YEAST), P32793
T6 chain: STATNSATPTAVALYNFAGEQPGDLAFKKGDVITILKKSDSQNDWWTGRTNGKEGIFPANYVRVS
Assay: SPOT array

| normalised SPOT signal, Boehringer light units (BLU); mean over the file's lines of this peptide | Binder |
| --- | --- |
| 81 | LNLSKDAPVPPAPE [YOL006C 316-329] |
| 14.5 | LNKTKLLPQSPILN [YJR005W 603-616] |
| 32.4 | LKKQKAIPSSPSGM [YMR179W 684-697] |
| 14.3 | LLPTKLIPSIPGGK [YER105C 312-325] |
| 173 | LNPNRRAPRRPLST [YJL128C 180-193] |
| 23.9 | LNGLKSSPADPHLS [YLR072W 61-74] |
| 554 | LMSLKRFPQLPSNT [YOL125W 162-175] |
| 28.4 | LLVTKERPRFPEDD [YIL129C 688-701] |

The next lines start with the binder.

| Binder | normalised SPOT signal, Boehringer light units (BLU); mean over the file's lines of this peptide |
| --- | --- |
| LNATKISPSAPSKD [YAR002W 346-359] | 8.4 |
| LNFKRLLPRDPSEK [YBR239C 260-273] | 3490 |
| LLEERNNPDIPVDK [YBR055C 407-420] | 19.5 |
| LNFPKNIPTIPFYV [YDR402C 27-40] | 22.8 |
| LNQSKGQPFQPSPT [YBL101C 22-35] | 26.4 |
